Results published in US6696546B1, “Peptide that kills growing but not stationary cells” (The Trustees of Columbia University in the City of New York, priority 2000, dated 2004).

Key:
[1] = test system: pRB knock out MEFs; assay: DNA content by FACS, pRB knock out mouse embryo fibroblasts; type: cell-based
Excerpt: (A) A graphical representation of the fold induction of sub-G1 DNA content in cells with or without pRB, as indicated below the graph. […] (B) A graphical representation of the fold induction of S-phase DNA content in the same cells.
The ability of SEQ ID NO:3 to stimulate both death and proliferation in mouse embryo fibroblasts, allows us to test the model, wherein pRB inhibits cell death after treatment with SEQ ID NO:3, thereby allowing for stimulation of proliferation (FIG. 9). In the absence of pRB, cells would no longer have the anti-apoptotic activity of pRB, and treatment with SEQ ID NO:3 would lead only to cell death. In the experiment shown in FIG. 11, two genetically identical populations of cells were used, except that one was pRB minus, by way of knock out technology. The fold inductions of both sub-G1 and S-phase are represented in FIG. 11. Upon treatment with SEQ ID NO:3, here done in duplicate, the cells with pRB show at least a two-fold induction of S-phase after one hour of treatment. The cells without pRB show none, but therefore a dramatic (up to 50 fold) induction of death.
After treatment with or without cell membrane permeable peptides (Synpep), cells were trypsinized, centrifuged and washed in PBS. […] The cells were then applied to the fluorescence-activated cell sorter (FACSCalibur; Becton Dickson). […]

[2] = test system: MEFs; assay: DNA content by propidium iodide staining and FACS, mouse embryo fibroblasts; type: cell-based; conditions: sub-confluent MEFs; for percentage of cells with S-phase DNA content / percentage of cells with sub-G1 DNA content: one hour, SEQ ID NO:3 1.87-30 μM, controls 30 μM
Description: (A) PAP's CRM stimulates both the percentage of cells with sub-G1 DNA content and S-phase DNA content in a dose dependent manner. DNA content as measured by FACS analysis is graphically represented.
(B) PAP's CRM stimulates cell death over time. The percentage of cells with a sub-G1 DNA content with or without treatment with 30 μM of PAP's CRM (SEQ ID NO: 3) for varying lengths of time is shown.
(C) The percents of cells with G0/G1 (in black), S (in gray), and G2/M (in white) DNA contents of the same population of cells in (B) are depicted.
Panel A depicts the MEF's response to a concentration curve of SEQ ID NO:3. […] After a one hour incubation, cells were harvested for propidium iodine staining and subsequent FACS analysis.
To further study the MEF's reactions to the membrane permeable peptide, SEQ ID NO:3, and to determine if the increase in S-phase depicts a stimulation or inhibition of proliferation, treatment with one concentration was followed at varying time points. Sub-confluent MEFs were treated with 30 μM SEQ ID NO:3, harvested at different time points, and their DNA content was analyzed by propidium iodide staining and subsequent FACS analysis. FIG. 10 panel B depicts the percentage of death initiated over time, as measured by sub-G1 DNA content. 30% of the cells die after the first hour of treatment, 50% by the forth. […], depicts the cell cycle analysis over time of those cells that are not dying. Here, the stimulation of the cell cycle over time by SEQ ID NO:3, is clearly seen, ruling out an inhibitory effect. In the first hour, 25% of the cycling cells are induced into S-phase, and in time, into G2/M and back into G1.
(§1) After treatment with or without cell membrane permeable peptides (Synpep), cells were trypsinized, centrifuged and washed in PBS. Cell were than fixed with methanol and kept at −20° C. for 40 min or overnight. After washing and equilibration in PBS, the cell pellet was resuspended in 1 ml of staining solution containing 50 μg of RNase A and 0.5 μg of propidium iodide per ml in PBS, and kept at room temperature for over 30 minutes. The cells were then applied to the fluorescence-activated cell sorter (FACSCalibur; Becton Dickson). The FACSCalibur program was used to sort and count the cells, and the Modfit program was used to calculate the percentage of cells in the G0/G1, S, and G2/M phases.

[3] = test system: Wi38 cells; assay: DNA content by propidium iodide staining and FACS, Wi38 cells; type: cell-based, human
[4] = test system: MEFs; assay: DNA content by propidium iodide staining and FACS, mouse embryo fibroblasts; type: cell-based; conditions: MEFs with pRB, after one hour of treatment, duplicate
[5] = test system: HaTCat cells; assay: DNA content by propidium iodide staining and FACS, HaTCat cells; type: cell-based, human; conditions: for S-phase population of cells: confluent (resting) HaTCat cells
Excerpt: A graphical representation of DNA content of cells as collected by propidium iodide staining and subsequent FACS analysis. G0/G1, S, and G2M phases are depicted of cells either treated or not treated with cell permeable peptides. The percentage of untreated cell in a given phase are in white, PAP's CRM in (SEQ ID NO: 3) black, p21's in gray (SEQ ID NO: 5), scrambled in horizontal stripes (SEQ ID NO: 4), internalization sequence alone in vertical stripes (SEQ ID NO: 2).
(A) PAP's CRM (SEQ ID NO: 3) kills growing HaTCats, but stimulates S-phase entry of stationary HaTCats. The bar graph depicts the fold induction over non-treated cells of sub-G1 DNA content and S-phase DNA content of four different populations of cells. The percentage of cells found S-phase of each population is noted below the bar graph. Sub-G1 DNA content and S-phase DNA content are depicted of cells either treated or not treated with cell permeable peptides. The percentages of untreated cell in a given phase are in white, PAP's CRM (SEQ ID NO: 3) in black, p21's in gray (SEQ ID NO: 5), and scrambled in stripes (SEQ ID NO: 4).
Panel B of FIG. 7 is a graphical representation of DNA content of cells, derived from propidium iodide staining and subsequent the fluorescence-activated cell sorter (FACS) analysis. In this experiment, an immortalized human karitinocyte cell line (HaTCat) was treated with the cell-membrane permeable form of PAP's CRM (SEQ ID NO:3). […] This is not observed with the scrambled sequence (SEQ ID NO:4), nor the p21 (SEQ ID NO:5) nor the penetratin sequence alone (SEQ ID NO:2).
FIG. 8 is a graphical representation of the fold induction, over untreated control cells, of sub-G1 DNA content and S-phase DNA content of four different populations of HaTCat cells. These populations vary in their proliferation rates due to their confluency, starting with the least confluent population of cells, with 30% in S-phase, to the most confluent population, with only 3.5% in S-phase. Cycling cells, with over 30% of cells in S-phase, die when treated with the SEQ ID NO:3.
as §1

[6] = target: PAP-cyclin B1 interaction (Homo sapiens, UniProt P14635); assay: GST-cyclin B1 pull-down assay of PAP binding
[7] = target: cyclin D1-cdk2 association (Homo sapiens, UniProt P24385); assay: GST-cyclin D1 binding assay with cdk2; conditions: peptide 9 μM and 20 μM; Western blot
[8] = target: cyclin A/cdk2 (Homo sapiens, UniProt P20248); assay: in vitro kinase assay, pRB phosphorylation by cyclin A/cdk2; type: biochemical; conditions: peptide 9 μM and 18 μM; for pRB phosphorylation by cyclin A/cdk2: γ-32P ATP, SDS-PAGE, autoradiography
[9] = target: cyclin B1/cdc2 (Homo sapiens, UniProt P14635); assay: in vitro kinase assay, pRB phosphorylation by cyclin B1/cdc2; type: biochemical; conditions: peptide 18 μM
Chain of cyclin B1/cdc2 (P14635 whole entry): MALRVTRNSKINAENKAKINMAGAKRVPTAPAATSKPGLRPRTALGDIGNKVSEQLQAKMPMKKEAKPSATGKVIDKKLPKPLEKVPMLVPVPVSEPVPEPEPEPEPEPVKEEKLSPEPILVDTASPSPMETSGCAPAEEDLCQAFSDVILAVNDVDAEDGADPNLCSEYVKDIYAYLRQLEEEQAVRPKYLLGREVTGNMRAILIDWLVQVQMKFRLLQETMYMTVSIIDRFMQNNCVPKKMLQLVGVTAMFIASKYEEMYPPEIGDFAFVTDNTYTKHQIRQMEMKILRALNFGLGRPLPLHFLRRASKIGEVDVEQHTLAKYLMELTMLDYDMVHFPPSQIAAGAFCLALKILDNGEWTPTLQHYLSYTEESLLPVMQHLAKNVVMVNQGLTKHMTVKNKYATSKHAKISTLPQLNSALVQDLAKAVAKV
Chain of cyclin B1/cdc2 (P06493 whole entry partner): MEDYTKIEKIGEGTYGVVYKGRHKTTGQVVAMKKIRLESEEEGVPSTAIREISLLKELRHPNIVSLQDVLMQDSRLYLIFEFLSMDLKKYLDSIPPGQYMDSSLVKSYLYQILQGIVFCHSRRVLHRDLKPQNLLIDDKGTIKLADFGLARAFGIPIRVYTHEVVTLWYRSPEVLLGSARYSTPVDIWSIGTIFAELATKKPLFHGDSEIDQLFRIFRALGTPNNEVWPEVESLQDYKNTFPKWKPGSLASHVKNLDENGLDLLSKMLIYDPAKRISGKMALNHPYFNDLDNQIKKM

Chain of PAP-cyclin B1 interaction (P14635 whole entry): as the sequence (P14635 whole entry) above

Substance: SEQ ID NO:3: 8-mer peptide (SEQ ID NO:1) fused to penetratin (SEQ ID NO:2); cell-membrane permeable form of PAP's CRM (RQIKIWFQNRRMKWKKSKIRILVG; poly(A) polymerase cyclin recognition motif fued to Drosohilia Antennapedia homeodomain residues)
- fold induction of death (sub-G1 DNA content) [1]: up to 50 fold
- fold induction of S-phase ([1]; MEFs without pRB, after one hour of treatment): none
- cells that die (sub-G1 DNA content) ([2]; 30 μM, after the first hour): 30%
- cells that die (sub-G1 DNA content) ([2]; 30 μM, by the fourth hour): 50%
- cycling cells induced into S-phase ([2]; 30 μM, in the first hour): 25%
- percentage of cells with S-phase DNA content [2]: dramatically increased
- percentage of cells with sub-G1 DNA content [2]: dramatically increased
- Wi38 death (sub-G1 DNA content) ([3]; populations of varying confluency): able to induce Wi38 death in a growth dependent manner
- decrease in fold induction of sub G1 DNA content ([3]; with the increase in confluency and decrease in growth): 30 fold
- fold induction of S-phase [4]: two
- S-phase population of cells [5]: dramatic increase
- cell death (sub-G1 DNA content) ([5]; cycling HaTCat cells, over 30% of cells in S-phase): die
- cell death (sub-G1 DNA content) ([5]; most confluent HaTCat population, 3.5% in S-phase): cell death is in fact inhibited

Substance: SKIRILVG (poly(A) polymerase cyclin recognition motif) [SEQ ID NO:1, synthetic 8-mer peptide spanning PAP's cyclin recognition motif (CRM)]
- PAP I-GST-cyclin B1 binding ([6]; 2, 5, 10 and 20 μM peptide): dose-dependent enhancement
- association of purified bacterial his-PAP I with GST-cyclin B1 ([6]; 2, 10 and 20 μM peptide, Western blot with anti-PAP antibody): strongly stimulated
- input PAP bound to GST-cyclin B1 ([6]; highest peptide concentration, purified bacterial his-PAP I): ~100%
- presence of cdk2 in the eluate of GST-cyclin D1 [7]: significantly increased
- cyclin A phosphorylation in the same reaction mixture ([8]; internal control for specificity): not cyclin A phosphorylation
- pRB phosphorylation by cyclin A/cdk2 [8]: effectively inhibited
- cyclin B1 autophosphorylation [9]: not affected
- phosphorylation of pRB by cyclin B1/cdc2 [9]: strongly and specifically inhibited

Substance: LRSGIKVI (scrambled sequence) [SEQ ID NO:4, fused to penetratin in cell tests, reference compound]
- percentage of cells with S-phase DNA content [2]: No effects
- percentage of cells with sub-G1 DNA content [2]: No effects
- presence of cdk2 in the eluate of GST-cyclin D1 [7]: without significant effect
- pRB phosphorylation by cyclin A/cdk2 [8]: no effect
- S-phase population of cells [5]: not observed
